In general, Kd refers to the concentration at which binding is half-saturated. The koff is a measure of how fast the partners let go of each other. High values mean a short-lived complex, low ones a long-lived complex. One may read the kon as the rate constant with which the complex forms. The low end stands for slower complex formation, the high end for faster complex formation.

For assay [1], the target named is T1, human mature BMP9 (human, UniProt Q9UK05 320-429).
T1 construct: also called GDF2; Human BMP9-biotin
T1 sequence: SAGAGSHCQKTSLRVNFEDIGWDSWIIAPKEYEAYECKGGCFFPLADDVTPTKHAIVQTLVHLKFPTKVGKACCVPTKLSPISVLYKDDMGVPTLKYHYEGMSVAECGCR
Put plainly: competition ELISA: antibody mixed with 5 nM BMP9-biotin, binding to coated ActRIIA (5 µg/ml) detected. As for the experimental part:
(§1) For competition ELISAs, each receptor protein was coated on a 384-well ELISA plate at its optimal coating concentration, 20 μl/well in PBS-CMF at 4° C. overnight. The next day, plates were washed 3 times with PBS+0.05% TWEEN™ 20 and blocked with PBS+1% BSA for 1 hr at RT with shaking. Anti-BMP9 Abs were serially diluted 3-fold in PBS+1% BSA, starting from 100 nM, then mixed with the same volume of the optimal concentration of biotinylated BMP9. The final concentration of biotinylated BMP9 corresponded to the EC₉₀ for each receptor, as determined in a preliminary experiment described above.
(§2) Serially diluted Abs were incubated with biotinylated BMP9 for at least 15 min at RT. Plates were washed as before, followed by addition of serially diluted Abs and the biotinylated BMP9 mixture. After incubating for 1 hr at RT, plates were washed 3 times with PBS+0.05% TWEEN™ 20. Secondary antibody was added (HRP-Streptavidin from BioLegend, cat #405210, 1:2000), followed by 1 hr incubation at RT. Plates were washed as before, signal was developed using TMB substrate, and the reaction stopped with 0.18 M H₂SO₄. Absorbance was read at 450 nm on an ENVISION® plate reader (Perkin Elmer).
On the technique in general: In an ELISA, binding on a coated surface is turned into a signal by an enzyme label.

The target in assay [2] is T1, human mature BMP9. Description: competition ELISA: antibody mixed with 1.5 nM BMP9-biotin, binding to coated BMPRII (2 µg/ml) detected. As for the experimental part:
as §1, §2

Assay [3] addresses T1, human mature BMP9. Description: competition ELISA: antibody mixed with 15 nM BMP9-biotin, binding to coated ActRIIB (5 µg/ml) detected. How it is done: as §1, §2
A further assay concerns the target T2, human GDF8 (human, UniProt O14793 267-375).
T2 sequence (looked up): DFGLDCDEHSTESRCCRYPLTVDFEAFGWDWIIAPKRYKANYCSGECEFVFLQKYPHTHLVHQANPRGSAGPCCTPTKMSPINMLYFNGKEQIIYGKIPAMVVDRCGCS
Description: cell-based or functional assay.

The target of assay [4] is T1, human mature BMP9. Description: cell-based or functional assay.
Assay [5] addresses T1, human mature BMP9. Put plainly: cell-based or functional assay. The source holds these as a separate data set.
In assay [6] the target is T1, human mature BMP9. Put plainly: competition ELISA: antibody mixed with 0.6 nM BMP9-biotin, binding to coated BMPRII (1 µg/ml) detected. As for the experimental part:
as §1, §2

Assay [7] addresses T1, human mature BMP9. Put plainly: SPR (Biacore T200), 37° C., biotinylated BMP9 captured on Sensor Chip CAP, Fab as analyte, 1:1 model. As for the experimental part:
(§3) The running and sample buffer was 10 mM HEPES pH 7.4, 0.15 M NaCl, 3 mM EDTA, 0.05% P-20 (HBS-EP+). Biotinylated mature human, cyno, and rat BMP9 proteins were reversibly captured onto a Sensor Chip CAP using the Biotin CAPture Reagent (Cytiva, 28920234) according to the manufacturer's instructions. The final capture level of human BMP9 was 100 resonance units (RU), cyno BMP9 was 50 RU, and rat BMP9 was 60 RU. Flow cell 1, without BMP9, was used as a reference flow cell. A two-fold dilution series of the Ab1076 Fab ranging from 100 nM to 6.2 nM was injected for 60 seconds at a flow rate of 100 μl per minute and the dissociation was monitored for 1800 seconds. Rate constants and affinities were determined by fitting the double referenced sensorgram data to a 1:1 model in BIACORE™ Insight Evaluation software version 3.0.1.12.15655 (Cytiva).
(In general: In SPR one partner is held on a chip, and binding of the other changes the refractive index at the surface.)

The next assay concerns the target T3, cyno BMP9 (mature) (cynomolgus monkey, UniProt G7PEU8 320-429).
T3 construct: mature; Biotinylated for SPR capture; also called Cyno BMP9-biotin; cynomolgus monkey BMP9
T3 sequence: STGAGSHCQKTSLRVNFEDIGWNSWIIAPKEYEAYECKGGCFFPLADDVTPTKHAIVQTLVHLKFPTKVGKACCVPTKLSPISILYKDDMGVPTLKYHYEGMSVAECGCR
The assay is described as above. How it is done:
as §3

For the next assay, the target named is T4, rat BMP9 (mature) (rat, UniProt M0RB87 320-430, Chemically biotinylated for capture on the SPR chip; sites not stated. Natural mature BMP9 is a disulfide-linked homodimer; one monomer chain is given.).
T4 construct: Biotinylated for SPR capture; also called Rat BMP9-biotin
T4 sequence: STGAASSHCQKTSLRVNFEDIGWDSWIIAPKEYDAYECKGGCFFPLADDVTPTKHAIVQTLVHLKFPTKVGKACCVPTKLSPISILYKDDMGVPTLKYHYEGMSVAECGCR
Described as above. As for the experimental part: as §3

B1: Ab100 (antibody, human IgG1, lambda, V domains shown)
VH: QMQLVQSGAEVKKPGSSVKVSCKASGGTFSSYAISWVRQAPGQGLEWMGGIIPIFGTANYAQKFQGRVTITADESTSTAYMELSSLRSEDTAVYYCARVQLDLSYYYYYGMDVWGQGTTVTVSS
VL: QSALTQPASVSGSPGQSITISCTGTSSDVGSYNLVSWYQQHPGKAPKLMIYEVSKRPSGVSDRFSGSKSANTASLTISGLQAEDEADYYCSSFSINGPSFVFGTGTKVTVLG
notes: Parental anti-BMP9 antibody, human IgG1/lambda; The heavy chain can be prepared with or without the C-terminal lysine
In the case of B1, the results for the “IC50 (read off the curve)” value in the assay with human mature BMP9 [1], in the assay with human mature BMP9 [2] and in the assay with human mature BMP9 [3] were roughly 3 nM, roughly 4 nM and roughly 8 nM, respectively.

B2: Ab732 (antibody, human IgG1, lambda, V domains shown)
VH: QVQLVQSGAEVKKPGASVKVSCKASGYTFTSYGISWVRQAPGQGLEWMGWISAYIGNTNYAQKLQGRVTMTTDTSISTAYMELSRLRSDDTAVYYCARAYYMDVWGQGTTVTVSS
VL: NFMLTQPHSVSESPGKTVTISCTGSSGNIASNYVQWYQQRPGSAPTTVIYEDKQRPSGVPDRFSGSIDRSSNSASLTISGLKTEDEADYYCQSYDNHLSVVFGGGTKLTVLG
Turning to B2, in the assay with human GDF8, the “IC50 (read off the curve): GDF8-induced CAGA-luciferase activity, C2C12 reporter cells” value is roughly 600 nM.

B3: Ab89 (antibody, human IgG1, lambda, V domains shown)
VH: QVQLVQSGAEVKKPGASVKVSCKASGYTFTSYYMHWVRQAPGQGLEWMGIINPSGGSTSYAQKFQGRVTMTRDTSTSTVYMELSSLRSEDTAVYYCASRDYYGSGRVYYYYGMDVWGQGTTVTVSS
VL: NFMLTQPHSVSESPGKTVTISCTGSSGSIASNYVQWYQQRPGSAPTTVIYEDNQRPSGVPDRFSGSIDSSSNSASLTISGLKTEDEADYYCQSYDSSIHVVFGGGTKLTVLG
notes: Parental anti-BMP9 antibody from a human phage library, human IgG1/lambda; The heavy chain can be prepared with or without the C-terminal lysine
In the case of B3, the “IC50 (read off the curve)” value with human mature BMP9 [1] was roughly 2 nM; in the assay with human mature BMP9 [2] it was roughly 4 nM; in the assay with human mature BMP9 [3], roughly 8 nM.

B4: Ab101 (antibody, human IgG1, lambda, V domains shown)
VH: QVQLVQSGAEVKKPGASVKVSCKASGYTFTSYGISWVRQAPGQGLEWMGWISAYNGNTNYAQKLQGRVTMTTDTSTSTAYMELRSLRSDDTAVYYCARAYGMDVWGQGTTVTVSS
VL: NFMLTQPHSVSESPGKTVTISCTGSSGSIASNYVQWYQQRPGSAPTTVIYEDKQRPSGVPDRFSGSIDRSSNSASLTISGLKTEDEADYYCQSYDNSLSVVFGGGTKLTVLG
notes: Parental clone converted to human IgG1/lambda; The heavy chain can be prepared with or without the C-terminal lysine; also called BMP9-0101
For the molecule B4, the “IC50 (read off the curve): BMP9-induced pSMAD1/5/9 nuclear translocation, TIME cells” value with human mature BMP9 [4] is roughly 80 nM. In addition, the “IC50 (read off the curve)” value in the assay with human mature BMP9 [1] is roughly 3 nM; with human mature BMP9 [3], roughly 10 nM.

B5: Ab93 (antibody, human IgG1, lambda, V domains shown)
VH: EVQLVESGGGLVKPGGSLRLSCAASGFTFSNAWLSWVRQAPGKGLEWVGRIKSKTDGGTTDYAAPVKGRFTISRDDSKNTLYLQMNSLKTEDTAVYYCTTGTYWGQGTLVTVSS
VL: QSVLTQPPSASGTPGQRVTISCSVTNSDIDIDNVHWYQQLPGMAPKLLFFHDYRPSGVSDRFSGSKSGTSASLAIVGLQSEDEGYYYCAGLDVAMRGPVFGGGTKLTVLG
notes: Parental clone converted to human IgG1/lambda; The heavy chain can be prepared with or without the C-terminal lysine; also called BMP9-0093
For B5, the “IC50 (read off the curve): BMP9-induced pSMAD1/5/9 nuclear translocation, TIME cells” value with human mature BMP9 [4] was roughly 0.1 nM. Besides, the “IC50 (read off the curve): BMP9-induced pSMAD2 nuclear translocation, TIME cells” value with human mature BMP9 [5] was roughly 80 pM. The “IC50 (read off the curve)” value with human mature BMP9 [1] is roughly 1 nM; with human mature BMP9 [2] it was roughly 4 nM; with human mature BMP9 [3], roughly 7 nM; in the assay with human mature BMP9 [6] it was roughly 0.5 nM.

B6: Ab1076 Fab (Fab, V domains shown)
VH: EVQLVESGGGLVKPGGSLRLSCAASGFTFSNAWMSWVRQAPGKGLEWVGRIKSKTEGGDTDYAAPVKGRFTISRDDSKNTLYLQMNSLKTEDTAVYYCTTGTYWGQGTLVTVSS
VL: QSVLTQPPSASGTPGQRVTISCSVTNTDIDIFNVHWYQQLPGTAPKLLFFHDYRPSGVSDRFSGSKSGTSASLAIVGLQSEDEGYYYCAGLDEAMRGPVFGGGTKLTVLG
notes: Monovalent Fab fragment of Ab1076; also called Ab1076 Fab fragment
In the assay with human mature BMP9 [7], B6 returned a Kd of 0.0874 nM, a koff of 3.84e-05 s⁻¹ and a kon of 440000 M⁻¹ s⁻¹. In the assay with cyno BMP9 (mature), the Kd stood at 0.0658 nM, the koff is 3.84e-05 s⁻¹ and the kon was determined as 585000 M⁻¹ s⁻¹. In the assay with rat BMP9 (mature), this molecule showed a Kd of 0.0986 nM, a koff of 5.14e-05 s⁻¹ and a kon of 532000 M⁻¹ s⁻¹.

B7: Ab352 (antibody, human IgG1, lambda, V domains shown)
VH: EVQLVESGGGLVQPGGSLRLSCAASGFTFSNAWMSWVRQAPGKGLEWVGRIKSKTDSGTTDYAAPVKGRFTISRDNAKNSLYLQMNSLRAEDTAVYYCTTGTYWGQGTLVTVSS
VL: QSVLTQPPSASGTPGQRVTISCSVTNSDIDIFNVHWYQQLPGTAPKLLFFHDYRPSGVSDRFSGSKSGTSASLAISGLRSEDEADYYCAGLDVAMRGPVFGGGTKLTVLG
notes: Optimized variant of Ab93; The heavy chain can be prepared with or without the C-terminal lysine
For the molecule B7, in the assay with human mature BMP9 [4], the “IC50 (read off the curve): BMP9-induced pSMAD1/5/9 nuclear translocation, TIME cells” value is roughly 50 pM. For the same molecule, the “IC50 (read off the curve)” value with human mature BMP9 [6] is roughly 0.2 nM.

B8: Ab804 (antibody, human IgG1, lambda, V domains shown)
VH: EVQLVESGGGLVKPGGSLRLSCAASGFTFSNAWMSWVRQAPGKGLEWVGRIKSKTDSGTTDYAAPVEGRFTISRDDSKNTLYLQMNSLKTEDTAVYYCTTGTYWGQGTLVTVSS
VL: QSVLTQPPSASGTPGQRVTISCSVTNPDIDIFNVHWYQQLPGTAPKLLFFHEYRPSGVSDRFSGSKSGTSASLAIVGLQSEDEGYYYCAGLDEAMRGPVFGGGTKLTVLG
notes: as for B7
For the molecule B8, the “IC50 (read off the curve)” value with human mature BMP9 [6] was roughly 0.2 nM.

These data come from patent US20240083991A1 (Pfizer, published 2024).
